The record followed here is patent publication CN112079918A (CANVEST WUHAN BIOTECHNOLOGY CO LTD, dated 2020).

The target of one assay is BSA (UniProt P02769 25-607). The experiment in a line: ELISA. A general note: An ELISA detects its analyte on a solid surface through an enzyme-linked reagent.
Assay [1] addresses SH02 HA (A/Shanghai/2/2013 H7N9) hemagglutinin protein (influenza A virus A/Shanghai/2/2013 (H7N9)). The experiment in a line: ELISA, P51C05 IgG on HA protein.
Assay [2] deals with 17SF HA (A/Guangdong/17SF003/2016) hemagglutinin protein (influenza A virus A/Guangdong/17SF003/2016 (H7N9)). The experiment in a line: ELISA, P51C05 IgG on HA protein.

Sequence of BSA (P02769 25-607 limits assumed): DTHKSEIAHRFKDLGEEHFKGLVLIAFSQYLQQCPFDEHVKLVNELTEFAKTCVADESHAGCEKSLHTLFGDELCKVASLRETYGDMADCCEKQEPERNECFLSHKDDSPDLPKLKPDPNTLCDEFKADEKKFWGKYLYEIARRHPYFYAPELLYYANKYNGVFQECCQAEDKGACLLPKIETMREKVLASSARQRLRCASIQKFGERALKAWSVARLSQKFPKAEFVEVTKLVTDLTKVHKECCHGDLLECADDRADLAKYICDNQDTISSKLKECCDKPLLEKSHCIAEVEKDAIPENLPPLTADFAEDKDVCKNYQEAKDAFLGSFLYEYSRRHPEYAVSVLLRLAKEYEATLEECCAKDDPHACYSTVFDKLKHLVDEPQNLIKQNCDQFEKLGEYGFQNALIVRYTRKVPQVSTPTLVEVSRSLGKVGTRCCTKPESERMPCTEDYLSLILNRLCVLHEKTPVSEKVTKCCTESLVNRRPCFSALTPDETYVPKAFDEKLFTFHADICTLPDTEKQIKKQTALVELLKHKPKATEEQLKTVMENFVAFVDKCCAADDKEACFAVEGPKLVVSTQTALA

B1: H7N9病毒特异性识别抗体P51C05 (IgG形式) (antibody, V domains shown)
VH: EVQLVQSGSELKKPGASVKVSCKASGYTFTSYTMNWVRQAPGQGLEWMGWINTNTGNPTYAQGFTGRFVFSLDTSVSTAYLQISSLKTEDTAVYYCARGVYGMDVWGQGTTVTVSS
VL: EIVLTQSPGTLSLSPGERATFSCRASQTVSNYLAWYQQKVGQAPRLLIYDASNRATGIPARFSGSGSGTDFTLTISSLEPEDFAVYYCQQRYNWPLTFGGGTKVEIKG
Consider B1, for which, in the assay with BSA, the binding result is on record as “no binding”. The 50% effective concentration (EC50) in assay [1] and in assay [2] was under 1 nM each time.
